Experimental data as given in US20170101470A1 (PROTHENA BIOSCIENCES, published 2017).

Tests used:
[1] = target: T1, human MCAM P145A mutant clone on BHK-S cells (human) (UniProt P43121); assay: shotgun mutagenesis, immunodetection on BHK-S cells, 0.25 ug/mL, background-subtracted and normalised to WT, triplicate
T1 sequence: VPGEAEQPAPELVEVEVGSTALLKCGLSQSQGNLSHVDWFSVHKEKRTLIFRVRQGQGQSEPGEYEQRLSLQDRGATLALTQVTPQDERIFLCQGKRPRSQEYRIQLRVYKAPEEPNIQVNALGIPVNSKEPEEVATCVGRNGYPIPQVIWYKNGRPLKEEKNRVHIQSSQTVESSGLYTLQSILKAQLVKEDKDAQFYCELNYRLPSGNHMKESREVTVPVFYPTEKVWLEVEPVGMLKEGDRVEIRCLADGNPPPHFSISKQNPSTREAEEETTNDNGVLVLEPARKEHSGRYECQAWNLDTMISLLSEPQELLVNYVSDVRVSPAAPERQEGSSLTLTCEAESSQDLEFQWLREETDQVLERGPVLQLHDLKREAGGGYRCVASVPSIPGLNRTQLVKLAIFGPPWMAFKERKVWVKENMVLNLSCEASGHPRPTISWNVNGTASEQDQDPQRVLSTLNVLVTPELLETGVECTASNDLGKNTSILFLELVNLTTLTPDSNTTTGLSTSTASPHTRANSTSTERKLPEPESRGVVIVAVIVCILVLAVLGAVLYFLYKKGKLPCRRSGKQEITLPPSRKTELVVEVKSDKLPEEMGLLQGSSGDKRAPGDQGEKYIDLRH

[2] = target: T2, human MCAM Y167A mutant clone on BHK-S cells (human) (UniProt P43121); assay: as above
T2 sequence: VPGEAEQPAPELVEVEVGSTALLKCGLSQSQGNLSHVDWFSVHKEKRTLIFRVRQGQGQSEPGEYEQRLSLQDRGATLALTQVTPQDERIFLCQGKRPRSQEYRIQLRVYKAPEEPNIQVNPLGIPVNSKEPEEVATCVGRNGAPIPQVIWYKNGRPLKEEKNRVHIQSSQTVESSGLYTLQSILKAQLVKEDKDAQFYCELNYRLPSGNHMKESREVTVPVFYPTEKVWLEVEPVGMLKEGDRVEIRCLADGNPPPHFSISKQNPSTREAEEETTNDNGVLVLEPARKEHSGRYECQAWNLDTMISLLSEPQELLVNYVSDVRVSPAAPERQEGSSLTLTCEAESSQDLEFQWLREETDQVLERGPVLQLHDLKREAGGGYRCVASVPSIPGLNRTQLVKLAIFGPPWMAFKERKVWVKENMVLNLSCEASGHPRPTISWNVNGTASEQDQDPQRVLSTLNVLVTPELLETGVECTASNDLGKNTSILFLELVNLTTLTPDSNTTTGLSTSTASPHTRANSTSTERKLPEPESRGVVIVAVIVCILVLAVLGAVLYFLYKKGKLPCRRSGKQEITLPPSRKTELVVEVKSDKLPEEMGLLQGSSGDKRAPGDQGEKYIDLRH

[3] = target: T3, human MCAM V241A mutant clone on BHK-S cells (human) (UniProt P43121); assay: as above
T3 sequence: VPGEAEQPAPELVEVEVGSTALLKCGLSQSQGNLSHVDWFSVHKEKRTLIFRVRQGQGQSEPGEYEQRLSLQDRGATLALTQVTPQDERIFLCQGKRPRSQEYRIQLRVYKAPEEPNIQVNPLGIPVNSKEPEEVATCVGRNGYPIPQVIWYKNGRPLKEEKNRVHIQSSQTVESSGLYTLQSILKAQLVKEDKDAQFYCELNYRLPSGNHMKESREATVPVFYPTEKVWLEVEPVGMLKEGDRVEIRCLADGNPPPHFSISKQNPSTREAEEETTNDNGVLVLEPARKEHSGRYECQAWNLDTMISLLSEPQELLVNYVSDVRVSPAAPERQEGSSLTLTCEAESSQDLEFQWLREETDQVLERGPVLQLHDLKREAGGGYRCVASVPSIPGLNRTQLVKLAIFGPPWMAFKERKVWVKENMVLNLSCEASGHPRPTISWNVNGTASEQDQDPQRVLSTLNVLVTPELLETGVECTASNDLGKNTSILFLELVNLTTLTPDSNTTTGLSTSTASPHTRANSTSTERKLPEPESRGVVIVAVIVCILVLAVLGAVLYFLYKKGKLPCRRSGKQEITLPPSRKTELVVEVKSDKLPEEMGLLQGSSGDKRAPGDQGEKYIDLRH

[4] = target: T4, human MCAM domain 1 hFc construct (human, UniProt P43121 19-129); assay: ForteBio Octet Red, MCAMhFc domains on anti-human IgG Fc sensors
T4 construct: One of the 'various MCAMhFc domains' loaded on the ForteBio sensors; also called MCAMhFc domain 1
T4 sequence: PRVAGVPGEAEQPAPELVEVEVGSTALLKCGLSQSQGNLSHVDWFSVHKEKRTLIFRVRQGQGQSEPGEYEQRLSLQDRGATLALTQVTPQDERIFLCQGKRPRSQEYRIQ
Text: The following protocol was used: ForteBio anti-human IgG Fc biosensors were used to immobilize various MCAMhFc domains including full length MCAMhFc protein on to biosensor surface. […] After loading these samples into a black 96 well plate, the Octet Red was programmed as follows: 60 seconds for baseline #1; 180 seconds for loading various domains; 60 seconds for baseline #2; 180 seconds for association of antibody to domain; and 240 seconds for dissociation of antibody from domain.
Reagents and Supplies Used: [0358] 1. MCAMhFc final concentration @ 5 ug/ml [0359] […] 3. ForteBio anti-human IgG Fc Capture (AHC) biosensors for kinetics experiments, cat#18-5060 [0361] 4. Block 96 well plate from Greiner Bio-one, cat#655209 [0362] 5. ForteBio Octet Red machine [0363] 6. Fresh tissue culture medium, DMEM with 20% FCS, was used as buffer for dilution

binding result [4]: no binding (tested: 5 ug/ml)
B1: rat anti-human MCAM monoclonal antibody clone 2120.4.19 (antibody, V domains shown)
VH: QVQLKESGPGLVQPSQTLSLTCTVSGFSLTSNGVSWVRQPPGKGLEWIAAISSGGTTYYNSAFKSRLSISRNTSKSQVLLKMNSLQTEDTAMYFCARRYGYGWYFDFWGPGTMVTVSS
VL: DIRMTQSPSLLSASVGDRVTLNCKASQNIYNSLAWYQQKLGEGPKVLIPNANSLQTGIPSRFSGSGSGTDFTLTISSLQPEDFATYFCQQFYSGYTFGAGTKLELK
notes: also called m2120
mean reactivity (% of wild type MCAM) [1]: 26.3 % WT | mean reactivity (% of wild type MCAM) [2]: 14.3 % WT | mean reactivity (% of wild type MCAM) [3]: 24.4 % WT
